Assay results as given in patent US20190060430A1 (published 2019).
Blank lines part the entries; values can stand above or below the binder they belong to.

Legend:
Experiment in all cases: cytokine release
[1] = target: T1, TPTE peptide on HLA-DRB5*02:02 (human)
T1 peptide: KLIRRRVSENKRRYT

[2] = target: T2, TPTE peptide on HLA-DRB1*15:01 (human)
T2 peptide: LFNILDTAIIVILLL

[3] = target: T3, TPTE peptide on HLA-DRB1*15:01 (human)
T3 peptide: RRQQYFSDLFNILDT

[4] = target: T4, TPTE peptide on HLA-DRB1*15:01 (human)
T4 peptide: DVVYIFFDIKLLRNI

[5] = target: T5, TPTE peptide on HLA-DRB1*13:01 (human)
T5 peptide: KLIRRRVSENKRRYT

[6] = target: T6, TPTE peptide on HLA-DRB1*13:01 (human)
T6 peptide: VLLRVFVERRQQYFS

[7] = target: T7, TPTE peptide on HLA-DRB1*15:01 (human)
T7 peptide: ILFIKHFIIYSIPRY

[8] = target: T8, TPTE peptide on HLA-DRB1*07:01 (human)
T8 peptide: YIPLEYRSISLAIAL

[9] = target: T9, TPTE peptide on HLA-DRB1*07:01 (human)
T9 peptide: VFVERRQQYFSDLFN

[10] = target: T10, TPTE peptide on HLA-DRB1*13:01 (human)
T10 peptide: RRVSENKRRYTRDGF

[11] = target: T11, TPTE peptide on HLA-DRB1*13:01 (human)
T11 peptide: PPRRILFIKHFIIYS

[12] = target: T12, TPTE peptide on HLA-DRB1*15:01 (human)
T12 peptide: YVAYFAQVKHLYNWNLPPR

[13] = target: T13, TPTE peptide on HLA-DRB1*13:01 (human)
T13 peptide: RFLDKKHRNHYRVYN

[14] = target: T14, TPTE peptide on HLA-DRB1*13:01 (human)
T14 peptide: KHFIIYSIPRYVRDLKIQI

[15] = target: T15, TPTE peptide on HLA-DRB1*15:01 (human)
T15 peptide: IKKIVHSIVSSFAFG

[16] = target: T16, TPTE peptide on HLA-DRB5*02:02 (human)
T16 peptide: IFFDIKLLRNIPRWTHLLR

[17] = target: T17, TPTE peptide on HLA-DRB3*03:01 (human)
T17 peptide: IKLLRNIPRWTHLLR

[18] = target: T18, TPTE peptide on HLA-B*07:02 (human)
T18 peptide: PRWTHLLRL

[19] = target: T19, TPTE peptide on HLA-DRB1*16:01 (human)
T19 peptide: NHYRVYNLCSERAYD

[20] = target: T20, TPTE peptide on HLA-DQA1*01:03 / HLA-DQB1*06:03 (human)
T20 peptide: VLDNITTDKILIDVF

[21] = target: T21, TPTE peptide on HLA-DQA1*01:02 / HLA-DQB1*06:02 (human)
T21 peptide: VLDNITTDKILIDVF

[22] = target: T22, TPTE peptide on HLA-DQA1*01:03 / HLA-DQB1*06:02 (human)
T22 peptide: VLDNITTDKILIDVF

[23] = target: T23, TPTE peptide on HLA-DRB1*15:01 (human)
T23 peptide: DSKLYIPLEYRSISLAIAL

binding result [1]: recognises
B1: TCRCD4-TPT#33 (TCR, V domains shown)
Valpha: DQQVKQNSPSLSVQEGRISILNCDYTNSMFDYFLWYKKYPAEGPTFLISISSIKDKNEDGRFTVFLNKSAKHLSLHIVPSQPGDSAVYFCAARSYGGSQGNLIFGKGTKLSVKP
Vbeta: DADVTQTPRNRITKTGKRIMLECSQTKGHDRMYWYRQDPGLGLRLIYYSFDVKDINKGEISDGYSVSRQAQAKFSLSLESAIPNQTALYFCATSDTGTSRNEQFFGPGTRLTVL

binding result [2]: recognises | binding result [3]: recognises | binding result [4]: recognises
B2: TCRCD4-TPT#79 (TCR, V domains shown)
Valpha: AQTVTQSQPEMSVQEAETVTLSCTYDTSESDYYLFWYKQPPSRQMILVIRQEAYKQQNATENRFSVNFQKAAKSFSLKISDSQLGDAAMYFCAYRSYNAGNMLTFGGGTRLMVKP
Vbeta: KAGVTQTPRYLIKTRGQQVTLSCSPISGHRSVSWYQQTPGQGLQFLFEYFSETQRNKGNFPGRFSGRQFSNSRSEMNVSTLELGDSALYLCASSDTSGGGGEQFFGPGTRLTVL

binding result [5]: recognises
B3: TCRCD4-TPT#51 (TCR, V domains shown)
Valpha: GENVEQHPSTLSVQEGDSAVIKCTYSDSASNYFPWYKQELGKRPQLIIDIRSNVGEKKDQRIAVTLNKTAKHFSLHITETQPEDSAVYFCAALSGGSNYKLTFGKGTLLTVNP
Vbeta: EAGVTQFPSHSVIEKGQTVTLRCDPISGHDNLYWYRRVMGKEIKFLLHFVKESKQDESGMPNNRFLAERTGGTYSTLKVQPAELEDSGVYFCASSQQENTEAFFGQGTRLTVV

binding result [6]: recognises
B4: TCRCD4-TPT#59 (TCR, V domains shown)
Valpha: ELKVEQNPLFLSMQEGKNYTIYCNYSTTSDRLYWYRQDPGKSLESLFVLLSNGAVKQEGRLMASLDTKARLSTLHITAAVHDLSATYFCAVDNEFYFGTGTSLTVIP
Vbeta: DTGVSQDPRHKITKRGQNVTFRCDPISEHNRLYWYRQTLGQGPEFLTYFQNEAQLEKSRLLSDRFSAERPKGSFSTLEIQRTEQGDSAMYLCASSLLGAGNIQYFGAGTRLSVL

binding result [7]: recognises
B5: TCRCD4-TPT#45 (TCR, V domains shown)
Valpha: GESVGLHLPTLSVQEGDNSIINCAYSNSASDYFIWYKQESGKGPQFIIDIRSNMDKRQGQRVTVLLNKTVKHLSLQIAATQPGDSAVYFCAETRQGGKLIFGQGTELSVKP
Vbeta: GAVVSQHPSWVICKSGTSVKIECRSLDFQATTMFWYRQFPKQSLMLMATSNEGSKATYEQGVEKDKFLINHASLTLSTLTVTSAHPEDSSFYICSAPPGVTVRAYGYTFGSGTRLTVV

binding result [8]: recognises | binding result [9]: recognises
B6: TCRCD4-TPT#9 (TCR, V domains shown)
Valpha: QQQVKQSPQSLIVQKGGISIINCAYENTAFDYFPWYQQFPGKGPALLIAIRPDVSEKKEGRFTISFNKSAKQFSLHIMDSQPGDSATYFCAASFYTGNQFYFGTGTSLTVIP
Vbeta: DTAVSQTPKYLVTQMGNDKSIKCEQNLGHDTMYWYKQDSKKFLKIMFSYNNKELIINETVPNRFSPKSPDKAHLNLHINSLELGDSAVYFCASSQEALGGGYGYTFGSGTRLTVV

binding result [10]: recognises
B7: TCRCD4-TPT#78 (TCR, V domains shown)
Valpha: AQSVTQLDSQVPVFEEAPVELRCNYSSSVSVYLFWYVQYPNQGLQLLLKYLSGSTLVKGINGFEAEFNKSQTSFHLRKPSVHISDTAEYFCAVGPNNFNKFYFGSGTKLNVKP
Vbeta: EPEVTQTPSHQVTQMGQEVILRCVPISNHLYFYWYRQILGQKVEFLVSFYNNEISEKSEIFDDQFSVERPDGSNFTLKIRSTKLEDSAMYFCASSPVGGYNSPLHFGNGTRLTVT

binding result [11]: recognises
B8: TCRCD4-TPT#82 (TCR, V domains shown)
Valpha: AQTVTQSQPEMSVQEAETVTLSCTYDTSESDYYLFWYKQPPSRQMILVIRQEAYKQQNATENRFSVNFQKAAKSFSLKISDSQLGDAAMYFCAYRSAGLLLTFGGGTRLMVKP
Vbeta: DGGITQSPKYLFRKEGQNVTLSCEQNLNHDAMYWYRQDPGQGLRLIYYSQIVNDFQKGDIAEGYSVSREKKESFPLTVTSAQKNPTAFYLCASSKAPGQGNTQGWEQYFGPGTRLTVT

binding result [12]: recognises
B9: TCRCD4-TPT#49 (TCR, V domains shown)
Valpha: AQTVTQSQPEMSVQEAETVTLSCTYDTSENNYYLFWYKQPPSRQMILVIRQEAYKQQNATENRFSVNFQKAAKSFSLKISDSQLGDTAMYFCAFMKNTGNQFYFGTGTSLTVIP
Vbeta: DGGITQSPKYLFRKEGQNVTLSCEQNLNHDAMYWYRQDPGQGLRLIYYSQIVNDFQKGDIAEGYSVSREKKESFPLTVTSAQKNPTAFYLCASRRLDGLGIGELFFGEGSRLTVL

binding result [13]: recognises
B10: TCRCD4-TPT#42 (TCR, V domains shown)
Valpha: GQQVMQIPQYQHVQEGEDFTTYCNSSTTLSNIQWYKQRPGGHPVFLIQLVKSGEVKKQKRLTFQFGEAKKNSSLHITATQTTDVGTYFCAGSTGGGNKLTFGTGTQLKVEL
Vbeta: GAGVSQSPRYKVAKRGQDVALRCDPISGHVSLFWYQQALGQGPEFLTYFQNEAQLDKSGLPSDRFFAERPEGSVSTLKIQRTQQEDSAVYLCASSDFYEQYFGPGTRLTVT

binding result [14]: recognises
B11: TCRCD4-TPT#77 (TCR, V domains shown)
Valpha: AQKITQTQPGMFVQEKEAVTLDCTYDTSDPSYGLFWYKQPSSGEMIFLIYQGSYDQQNATEGRYSLNFQKARKSANLVISASQLGDSAMYFCAMREGLAKTSYDKVIFGPGTSLSVIP
Vbeta: GAVVSQHPSWVICKSGTSVKIECRSLDFQATTMFWYRQFPKQSLMLMATSNEGSKATYEQGVEKDKFLINHASLTLSTLTVTSAHPEDSSFYICSAPGTGHSAGELFFGEGSRLTVL

binding result [15]: recognises
B12: TCRCD4-TPT#57 (TCR, V domains shown)
Valpha: AQSVSQHNHHVILSEAASLELGCNYSYGGTVNLFWYVQYPGQHLQLLLKYFSGDPLVKGIKGFEAEFIKSKFSFNLRKPSVQWSDTAEYFCAVNARDNAGKSTFGDGTTLTVKP
Vbeta: KAGVTQTPRYLIKTRGQQVTLSCSPISGHRSVSWYQQTPGQGLQFLFEYFSETQRNKGNFPGRFSGRQFSNSRSEMNVSTLELGDSALYLCASRGEPSSYEQYFGPGTRLTVT

binding result [16]: recognises
B13: TCRCD4-TPT#17 (TCR, V domains shown)
Valpha: DQQVKQNSPSLSVQEGRISILNCDYTNSMFDYFLWYKKYPAEGPTFLISISSIKDKNEDGRFTVFLNKSAKHLSLHIVPSQPGDSAVYFCAASPNTGNQFYFGTGTSLTVIP
Vbeta: GAGVSQSPSNKVTEKGKDVELRCDPISGHTALYWYRQSLGQGLEFLIYFQGNSAPDKSGLPSDRFSAERTGGSVSTLTIQRTQQEDSAVYLCASSLTGGPYEQYFGPGTRLTVT

binding result [17]: recognises
B14: TCRCD4-TPT#27 (TCR, V domains shown)
Valpha: GENVEQHPSTLSVQEGDSAVIKCTYSDSASNYFPWYKQELGKRPQLIIDIRSNVGEKKDQRIAVTLNKTAKHFSLHITETQPEDSAVYFCAALYSGGGADGLTFGKGTHLIIQP
Vbeta: DGGITQSPKYLFRKEGQNVTLSCEQNLNHDAMYWYRQDPGQGLRLIYYSQIVNDFQKGDIAEGYSVSREKKESFPLTVTSAQKNPTAFYLCASSIGGGVNTEAFFGQGTRLTVV

binding result [18]: recognises
B15: TCRCD8-TPT#35/2 (TCR, V domains shown)
Valpha: AQKVTQAQTEISVVEKEDVTLDCVYETRDTTYYLFWYKQPPSGELVFLIRRNSFDEQNEISGRYSWNFQKSTSSFNFTITASQVVDSAVYFCALIEAAAGNKLTFGGGTRVLVKP
Vbeta: NAGVTQTPKFRVLKTGQSMTLLCAQDMNHEYMYWYRQDPGMGLRLIHYSVGEGTTAKGEVPDGYNVSRLKKQNFLLGLESAAPSQTSVYFCASSDGYGYTFGSGTRLTVV

binding result [19]: recognises
B16: TCRCD4-TPT#38 (TCR, V domains shown)
Valpha: ELKVEQNPLFLSMQEGKNYTIYCNYSTTSDRLYWYRQDPGKSLESLFVLLSNGAVKQEGRLMASLDTKARLSTLHITAAVHDLSATYFCAVGFRGSTLGRLYFGRGTQLTVWP
Vbeta: DAGVTQSPTHLIKTRGQHVTLRCSPISGHKSVSWYQQVLGQGPQFIFQYYEKEERGRGNFPDRFSARQFPNYSSELNVNALLLGDSALYLCASSWGQGNEKLFFGSGTQLSVL

binding result [20]: recognises | binding result [21]: recognises | binding result [22]: recognises
B17: TCRCD4-TPT#76 (TCR, V domains shown)
Valpha: AQSVTQPDIHITVSEGASLELRCNYSYGATPYLFWYVQSPGQGLQLLLKYFSGDTLVQGIKGFEAEFKRSQSSFNLRKPSVHWSDAAEYFCAVGAFTRGGSEKLVFGKGMKLTVNP
Vbeta: DGGITQSPKYLFRKEGQNVTLSCEQNLNHDAMYWYRQDPGQGLRLIYYSQIVNDFQKGDIAEGYSVSREKKESFPLTVTSAQKNPTAFYLCATGSYVGYEQYFGPGTRLTVT

binding result [23]: recognises
B18: TCRCD4-TPT#52 (TCR, V domains shown)
Valpha: AQSVTQPDIHITVSEGASLELRCNYSYGATPYLFWYVQSPGQGLQLLLKYFSGDTLVQGIKGFEAEFKRSQSSFNLRKPSVHWSDAAEYFCAVGAQGAQKLVFGQGTRLTINP
Vbeta: NAGVTQTPKFQVLKTGQSMTLQCAQDMNHNSMYWYRQDPGMGLRLIYYSASEGTTDKGEVPNGYNVSRLNKREFSLRLESAAPSQTSVYFCASSEAGGSSFEQYFGPGTRLTVT
